This experiment deals with Erv1 with a C-terminal histidine tag (Erv1-His) (S. cerevisiae) (UniProt P27882). Description: pull-down.
UniProt P27882, sequence (P27882 whole entry): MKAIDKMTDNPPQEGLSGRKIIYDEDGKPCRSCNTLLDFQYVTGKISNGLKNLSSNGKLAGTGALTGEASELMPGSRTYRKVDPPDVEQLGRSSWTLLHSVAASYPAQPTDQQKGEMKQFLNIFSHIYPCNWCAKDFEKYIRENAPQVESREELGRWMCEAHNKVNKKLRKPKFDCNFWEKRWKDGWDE

“Osm1 (fumarate reductase), endogenous mitochondrial form (from UniProt P21375 33-501) (enzyme)” displayed a fraction copurified of 10%.

Source of the values: paper PMC5638582.
